Experimental data reported in publication PMC2873289, “A Helix Replacement Mechanism Directs Metavinculin Functions” (PLoS ONE, 2010).

Assays:
[1] = biological target: the molecule itself; test: band on SDS-PAGE of the pull-down eluate, identified by Western blot; band seen in the lanes where GST-Vt and PIP2 are present
[2] = biological target: T1, metavinculin-ΔH1′ (lacking residues 963–983) (human, UniProt P18206 1-1134, lacking residues 963–983); test: pull-down; GST-Vt (0.5 µM) on GST-Sepharose beads, with or without pre-incubation with 5 µM PIP2; 15 µM His8-tagged metavinculin or deletion mutant pre-activated with talin-VBS3, 1 hr 37°C; 20 mM Tris-HCl pH 8, 150 mM NaCl; eluted with glutathione, SDS-PAGE, Western blot; settings: both partners purified
T1 construct: human metavinculin, full length (1-1,134) lacking residues 963-983 (α-helix H1′): 1-962 joined to 984-1,134; also called MV-ΔH1′; source: E. coli BL21-DE3, purified (as full-length metavinculin); not shown: His8, N-terminal, kept
T1 sequence (looked up): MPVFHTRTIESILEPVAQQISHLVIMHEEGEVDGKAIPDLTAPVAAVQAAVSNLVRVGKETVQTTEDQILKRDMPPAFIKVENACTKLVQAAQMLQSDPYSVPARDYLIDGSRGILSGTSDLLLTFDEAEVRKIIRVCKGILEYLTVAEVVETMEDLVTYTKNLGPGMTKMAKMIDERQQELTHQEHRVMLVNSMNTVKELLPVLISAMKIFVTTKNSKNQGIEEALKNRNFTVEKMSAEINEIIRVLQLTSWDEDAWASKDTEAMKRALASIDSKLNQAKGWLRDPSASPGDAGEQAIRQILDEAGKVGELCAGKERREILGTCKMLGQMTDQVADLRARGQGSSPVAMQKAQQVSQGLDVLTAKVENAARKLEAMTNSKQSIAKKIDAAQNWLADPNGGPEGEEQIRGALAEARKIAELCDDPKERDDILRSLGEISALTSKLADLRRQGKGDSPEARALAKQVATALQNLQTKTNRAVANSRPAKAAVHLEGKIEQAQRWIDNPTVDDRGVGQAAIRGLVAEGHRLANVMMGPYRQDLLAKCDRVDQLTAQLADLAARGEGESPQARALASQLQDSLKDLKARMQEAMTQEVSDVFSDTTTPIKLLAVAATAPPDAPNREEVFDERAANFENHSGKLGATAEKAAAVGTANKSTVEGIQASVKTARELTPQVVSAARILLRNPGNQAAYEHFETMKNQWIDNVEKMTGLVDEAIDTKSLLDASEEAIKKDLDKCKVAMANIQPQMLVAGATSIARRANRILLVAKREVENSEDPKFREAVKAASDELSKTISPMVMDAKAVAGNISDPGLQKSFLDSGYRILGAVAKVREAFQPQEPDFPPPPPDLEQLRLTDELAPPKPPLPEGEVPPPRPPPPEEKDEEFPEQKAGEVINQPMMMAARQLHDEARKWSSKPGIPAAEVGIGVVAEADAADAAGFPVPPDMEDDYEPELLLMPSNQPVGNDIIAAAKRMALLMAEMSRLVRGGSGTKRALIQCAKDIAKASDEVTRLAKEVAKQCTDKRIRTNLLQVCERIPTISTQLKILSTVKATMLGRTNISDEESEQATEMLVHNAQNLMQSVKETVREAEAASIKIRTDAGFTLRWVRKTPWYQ

B1: GST tagged vinculin tail domain (GST-Vt; residues 879–1,066) (domain or fragment, human, UniProt P18206-2 879-1066, looked up)
chain: EEKDEEFPEQKAGEVINQPMMMAARQLHDEARKWSSKGNDIIAAAKRMALLMAEMSRLVRGGSGTKRALIQCAKDIAKASDEVTRLAKEVAKQCTDKRIRTNLLQVCERIPTISTQLKILSTVKATMLGRTNISDEESEQATEMLVHNAQNLMQSVKETVREAEAASIKIRTDAGFTLRWVRKTPWYQ
notes: human vinculin tail domain, residues 879-1,066 of vinculin (1,066-residue isoform), cloned in pGEX-4T-1; source: E. coli BL21-DE3, purified (GSTrap FF, Superdex 75)
- stoichiometry N [1]: 2
- binding result [2]: binds
